Measured values as given in patent publication US20220315654A1.

Target: recombinant cynomolgus monkey PD-L1 soluble protein (biotinylated) (cynomolgus monkey) (UniProt G7PSE7)
Experiment: sandwich ELISA: antibody captured on coated anti-human Fc, biotinylated recombinant cynomolgus PD-L1 titrated (x axis, nM), streptavidin-HRP/Amplex red fluorescence

Sequence of Avelumab (antibody) (VH): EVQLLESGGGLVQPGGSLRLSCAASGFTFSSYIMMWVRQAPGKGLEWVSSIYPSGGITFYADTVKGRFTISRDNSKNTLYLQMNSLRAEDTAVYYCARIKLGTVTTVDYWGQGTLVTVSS
Sequence of Avelumab (antibody) (VL): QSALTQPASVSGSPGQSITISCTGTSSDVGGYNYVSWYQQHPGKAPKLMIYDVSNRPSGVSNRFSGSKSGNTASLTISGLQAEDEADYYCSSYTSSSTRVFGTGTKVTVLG
Sequence of recombinant cynomolgus monkey PD-L1 soluble protein (biotinylated) (cynomolgus monkey) (G7PSE7 entry or part of it limits assumed): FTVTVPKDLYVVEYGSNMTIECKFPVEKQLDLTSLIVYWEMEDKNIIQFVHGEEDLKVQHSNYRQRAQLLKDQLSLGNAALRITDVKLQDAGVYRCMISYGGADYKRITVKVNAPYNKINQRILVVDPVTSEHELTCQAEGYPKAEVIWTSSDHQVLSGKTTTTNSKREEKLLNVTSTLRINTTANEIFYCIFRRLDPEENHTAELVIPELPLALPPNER

## Avelumab (antibody)
  EC50 (read off the curve): 0.05 nM
